The values below come from the supplement of paper PMC5998384.

Data set [1] concerns HeLa Kyoto. Nature of the data set: solubility in G1/S (NP-40 vs SDS abundance) (log2 ratio); higher = more soluble. Conditions: cell cycle stage: G1/S.
Data set [2] concerns HeLa Kyoto. Briefly: melting temperature (median over replicates), in situ; higher = more thermally stable.
For data set [3], the system named is HeLa Kyoto. Nature of the data set: solubility change mitosis vs G1/S (difference of NP-40 vs SDS log2 ratios) (log2 ratio difference); higher = more soluble in mitosis.
In data set [4] the test system is HeLa Kyoto. Nature of the data set: thermal stability score vs G1/S (z-score of summed log2 fold changes over temperatures); higher = more thermally stable than in G1/S.
Where [5] appears, read: cell cycle stage: early G1 (4.5 h after nocodazole release).
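For melting temperature (median over replicates), in situ in this document: HeLa Kyoto cells synchronized by double thymidine or nocodazole block, proteins quantified by TMT10plex mass spectrometry, three independent biological replicates.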
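For solubility change mitosis vs G1/S (difference of NP-40 vs SDS log2 ratios) in this document: synchronized HeLa Kyoto cells (double thymidine block for G1/S, nocodazole release for mitosis), protein amounts in NP-40 versus SDS lysates quantified by mass spectrometry, three biological replicates.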
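For solubility in G1/S (NP-40 vs SDS abundance) in this document: HeLa Kyoto cells arrested at G1/S by double thymidine block, proteins quantified by TMT10plex mass spectrometry in mild NP-40 versus SDS extracts, three biological replicates.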
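For thermal stability score vs G1/S (z-score of summed log2 fold changes over temperatures) in this document: synchronized HeLa Kyoto cells, proteins quantified by TMT10plex mass spectrometry, three biological replicates, mitosis taken 0.5 h after nocodazole release, G1/S directly after double thymidine block.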

In the case of “MEDSEALGFEHMGLDPRLLQAVTDLGWSRPTLIQEKAIPLALEGKDLLARARTGSGKTAAYAIPMLQLLLHRKATGPVVEQAVRGLVLVPTKELARQAQSMIQQLATYCARDVRVANVSAAEDSVSQRAVLMEKPDVVVGTPSRILSHLQQDSLKLRDSLELLVVDEADLLFSFGFEEELKSLLCHLPRIYQAFLMSATFNEDVQALKELILHNPVTLKLQESQLPGPDQLQQFQVVCETEEDKFLLLYALLKLSLIRGKSLLFVNTLERSYRLRLFLEQFSIPTCVLNGELPLRSRCHIISQFNQGFYDCVIATDAEVLGAPVKGKRRGRGPKGDKASDPEAGVARGIDFHHVSAVLNFDLPPTPEAYIHRAGRTARANNPGIVLTFVLPTEQFHLGKIEELLSGENRGPILLPYQFRMEEIEGFRYRCRDAMRSVTKQAIREARLKEIKEELLHSEKLKTYFEDNPRDLQLLRHDLPLHPAVVKPHLGHVPDYLVPPALRGLVRPHKKRKKLSSSCRKAKRAKSQNPLRSFKHKGKKFRPTAKPS [DDX56]”, the “solubility in G1/S (log2)” value in the data set on HeLa Kyoto [1] is -1.13. The values for the melting temperature in the data set with HeLa Kyoto [2] (cell cycle stage: G1/S) and with HeLa Kyoto [2] (cell cycle stage: mitosis) were 51.8 °C and 52 °C, respectively. The “solubility change mitosis (log2)” value in the data set on HeLa Kyoto [3] was 0.785. Also, the thermal stability score with HeLa Kyoto [4] (setting [5]) amounted to 0.609; with HeLa Kyoto [4] (cell cycle stage: mitosis), 0.497.
Take “MATALALRSLYRARPSLRCPPVELPWAPRRGHRLSPADDELYQRTRISLLQREAAQAMYIDSYNSRGFMINGNRVLGPCALLPHSVVQWNVGSHQDITEDSFSLFWLLEPRIEIVVVGTGDRTERLQSQVLQAMRQRGIAVEVQDTPNACATFNFLCHEGRVTGAALIPPPGGTSLTSLGQAAQ [NDUFAF3]”: the “solubility in G1/S (log2)” value with HeLa Kyoto [1] was determined as 0.117. Besides, the results for the melting temperature with HeLa Kyoto [2] (cell cycle stage: G1/S) and in the data set on HeLa Kyoto [2] (cell cycle stage: mitosis) were 53.4 °C and 53.5 °C, respectively. The “solubility change mitosis (log2)” value in the data set with HeLa Kyoto [3] was -0.0203. In addition, the thermal stability score with HeLa Kyoto [4] (setting [5]) was -0.2; in the data set with HeLa Kyoto [4] (cell cycle stage: mitosis), -2.08.
Take “MLLPNILLTGTPGVGKTTLGKELASKSGLKYINVGDLAREEQLYDGYDEEYDCPILDEDRVVDELDNQMREGGVIVDYHGCDFFPERWFHIVFVLRTDTNVLYERLETRGYNEKKLTDNIQCEIFQVLYEEATASYKEEIVHQLPSNKPEELENNVDQILKWIEQWIKDHNS [AK6]”: in the data set with HeLa Kyoto [1], the “solubility in G1/S (log2)” value was determined as 0.193. Further, the results for the melting temperature in the data set with HeLa Kyoto [2] (cell cycle stage: G1/S) and in the data set on HeLa Kyoto [2] (cell cycle stage: mitosis) were 46.9 °C and 49.8 °C, respectively. Besides, the “solubility change mitosis (log2)” value in the data set on HeLa Kyoto [3] was -0.0162. In addition, the thermal stability score in the data set on HeLa Kyoto [4] (setting [5]) came to 1.22; in the data set on HeLa Kyoto [4] (cell cycle stage: mitosis) it was 1.07.
With “MARCERLRGAALRDVLGRAQGVLFDCDGVLWNGERAVPGAPELLERLARAGKAALFVSNNSRRARPELALRFARLGFGGLRAEQLFSSALCAARLLRQRLPGPPDAPGAVFVLGGEGLRAELRAAGLRLAGDPSAGDGAAPRVRAVLVGYDEHFSFAKLREACAHLRDPECLLVATDRDPWHPLSDGSRTPGTGSLAAAVETASGRQALVVGKPSPYMFECITENFSIDPARTLMVGDRLETDILFGHRCGMTTVLTLTGVSRLEEAQAYLAAGQHDLVPHYYVESIADLTEGLED [PDXP]”, the “solubility in G1/S (log2)” value in the data set on HeLa Kyoto [1] is 0.126. In addition, the melting temperature was 56.7 °C with HeLa Kyoto [2] (cell cycle stage: G1/S) and 57.5 °C in the data set on HeLa Kyoto [2] (cell cycle stage: mitosis). Also, in the data set on HeLa Kyoto [3], the “solubility change mitosis (log2)” value is -0.126. Besides, the thermal stability score in the data set with HeLa Kyoto [4] (setting [5]) was -2.14; in the data set on HeLa Kyoto [4] (cell cycle stage: mitosis), -1.83.
With ZWILCH, the “solubility in G1/S (log2)” value in the data set on HeLa Kyoto [1] amounted to 0.0446. For the same substance, the figures for the melting temperature in the data set on HeLa Kyoto [2] (cell cycle stage: G1/S) and with HeLa Kyoto [2] (cell cycle stage: mitosis) were 50.9 °C and 50.2 °C, respectively. The “solubility change mitosis (log2)” value in the data set with HeLa Kyoto [3] was -0.229. Also, the thermal stability score in the data set on HeLa Kyoto [4] (setting [5]) came to 0.346; in the data set with HeLa Kyoto [4] (cell cycle stage: mitosis), 0.376.
With “MDLYSTPAAALDRFVARRLQPRKEFVEKARRALGALAAALRERGGRLGAAAPRVLKTVKGGSSGRGTALKGGCDSELVIFLDCFKSYVDQRARRAEILSEMRASLESWWQNPVPGLRLTFPEQSVPGALQFRLTSVDLEDWMDVSLVPAFNVLGQAGSGVKPKPQVYSTLLNSGCQGGEHAACFTELRRNFVNIRPAKLKNLILLVKHWYHQVCLQGLWKETLPPVYALELLTIFAWEQGCKKDAFSLAEGLRTVLGLIQQHQHLCVFWTVNYGFEDPAVGQFLQRQLKRPRPVILDPADPTWDLGNGAAWHWDLLAQEAASCYDHPCFLRGMGDPVQSWKGPGLPRAGCSGLGHPIQLDPNQKTPENSKSLNAVYPRAGSKPPSCPAPGPTGAASIVPSVPGMALDLSQIPTKELDRFIQDHLKPSPQFQEQVKKAIDIILRCLHENCVHKASRVSKGGSFGRGTDLRDGCDVELIIFLNCFTDYKDQGPRRAEILDEMRAQLESWWQDQVPSLSLQFPEQNVPEALQFQLVSTALKSWTDVSLLPAFDAVGQLSSGTKPNPQVYSRLLTSGCQEGEHKACFAELRRNFMNIRPVKLKNLILLVKHWYRQVAAQNKGKGPAPASLPPAYALELLTIFAWEQGCRQDCFNMAQGFRTVLGLVQQHQQLCVYWTVNYSTEDPAMRMHLLGQLRKPRPLVLDPADPTWNVGHGSWELLAQEAAALGMQACFLSRDGTSVQPWDVMPALLYQTPAGDLDKFISEFLQPNRQFLAQVNKAVDTICSFLKENCFRNSPIKVIKVVKGGSSAKGTALRGRSDADLVVFLSCFSQFTEQGNKRAEIISEIRAQLEACQQERQFEVKFEVSKWENPRVLSFSLTSQTMLDQSVDFDVLPAFDALGQLVSGSRPSSQVYVDLIHSYSNAGEYSTCFTELQRDFIISRPTKLKSLIRLVKHWYQQCTKISKGRGSLPPQHGLELLTVYAWEQGGKDSQFNMAEGFRTVLELVTQYRQLCIYWTINYNAKDKTVGDFLKQQLQKPRPIILDPADPTGNLGHNARWDLLAKEAAACTSALCCMGRNGIPIQPWPVKAAV [OAS3]”, the “solubility in G1/S (log2)” value in the data set with HeLa Kyoto [1] was -0.177. For the same substance, the melting temperature was determined as 50.3 °C with HeLa Kyoto [2] (cell cycle stage: G1/S) and 49.8 °C in the data set with HeLa Kyoto [2] (cell cycle stage: mitosis). Also, the “solubility change mitosis (log2)” value with HeLa Kyoto [3] is -0.109. Also, the thermal stability score turned out to be 1.51 with HeLa Kyoto [4] (setting [5]) and 1.6 with HeLa Kyoto [4] (cell cycle stage: mitosis).
